# According to article PMC3101628 (Nature structural & molecular biology, 2011):
# T1: hRRM1 with the first 74 residues deleted (t-hRRM1) (human, UniProt P23921 75-792)
# T1 sequence (looked up): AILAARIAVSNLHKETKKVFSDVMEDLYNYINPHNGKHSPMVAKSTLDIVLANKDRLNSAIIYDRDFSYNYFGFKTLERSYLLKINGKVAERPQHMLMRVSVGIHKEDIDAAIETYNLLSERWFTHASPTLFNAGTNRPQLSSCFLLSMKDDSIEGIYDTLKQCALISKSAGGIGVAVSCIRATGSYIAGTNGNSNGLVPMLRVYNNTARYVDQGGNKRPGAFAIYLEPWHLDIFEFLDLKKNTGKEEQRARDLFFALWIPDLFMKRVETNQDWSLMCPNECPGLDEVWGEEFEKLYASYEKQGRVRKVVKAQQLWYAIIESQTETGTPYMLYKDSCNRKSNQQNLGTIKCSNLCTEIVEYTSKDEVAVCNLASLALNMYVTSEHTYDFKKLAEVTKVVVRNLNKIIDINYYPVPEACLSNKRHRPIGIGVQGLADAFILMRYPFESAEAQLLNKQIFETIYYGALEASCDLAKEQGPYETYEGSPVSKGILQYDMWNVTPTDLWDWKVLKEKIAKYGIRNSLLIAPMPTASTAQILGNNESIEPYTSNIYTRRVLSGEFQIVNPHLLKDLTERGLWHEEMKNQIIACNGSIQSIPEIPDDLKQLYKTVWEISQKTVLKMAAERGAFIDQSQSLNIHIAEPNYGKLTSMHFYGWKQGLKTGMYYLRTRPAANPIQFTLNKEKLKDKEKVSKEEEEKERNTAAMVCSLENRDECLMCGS
# B1: human ribonucleotide reductase small subunit hRRM2 (enzyme, UniProt P31350 1-389, looked up)
# chain: MLSLRVPLAPITDPQQLQLSPLKGLSLVDKENTPPALSGTRVLASKTARRIFQEPTEPKTKAAAPGVEDEPLLRENPRRFVIFPIEYHDIWQMYKKAEASFWTAEEVDLSKDIQHWESLKPEERYFISHVLAFFAASDGIVNENLVERFSQEVQITEARCFYGFQIAMENIHSEMYSLLIDTYIKDPKEREFLFNAIETMPCVKKKADWALRWIGDKEATYGERVVAFAAVEGIFFSGSFASIFWLKKRGLMPGLTFSNELISRDEGLHCDFACLMFKHLVHKPSEERVREIIINAVRIEQEFLTEALPVKLIGMNCTLMKQYIEFVADRLMLELGFSKVFRVENPFDFMENISLEGKTNFFEKRVGEYQRMGVMSSPTENSFTLDADF
# Key:
# [1] = target: T1, hRRM1 with the first 74 residues …; experiment: SEC
# SEC = target: the molecule itself; experiment: SEC
binder,measurement,setting,value
B1,binding result,[1],binds
same,stoichiometry N,SEC,2
